Reference: article PMC11040352 (2024)
Starred links: 1 amine or outer side, 2 acyl side, 3 side chain; linkers in the order of their positions; H or OH if unused. Positions of bridges follow the written chain, without caps; N, C: chain ends. Primed or numbered codes have the meaning given here. *: point of attachment. NOTA = O=C(O)CN1CCN(CC(=O)O)CCN(CC(=O)*)CC1; TBMB = c1c(C[*:1])cc(C[*:3])cc1C[*:2]; PEG3′ = not defined here

Target: His-Tagged human CD38 (recombinant) (human, UniProt P28907 1-300)
Experiment: SPR

B1: AJ206 (peptide)
peptide: {NOTA-PEG3′}-ACVPCADFPIWYC-NH2
modifications: linker 2-5-13 via TBMB (inferred)
koff: 0.0006 s⁻¹
